Reference: PMC11407402
Values joined by “and” are separate entries in the source; they are usually repeats but may differ in a detail not shown here. Identical values can stand only once.

Molecular target: non-glycosylated recombinant FcγRIIIa, 158 V allele, immobilised in the TSKgel FcγR-IIIA-NPR column
Assay: affinity HPLC on immobilised receptor

elution time: 14.4 min and 16.2 min and 17.9 min
mean elution time: 15.5 min
Substance: anti-CD20 antibody (rituximab V regions), wild-type human IgG1
